Reference: article PMC7324543, “Rapid and sensitive large-scale screening of low affinity extracellular receptor protein interactions by using reaction induced inhibition of Gaussia luciferase” (Scientific Reports, 2020)
Values belong to the molecule of their own block, whether it stands above or below them.

What was measured:
[1] = molecular target: Cd200R (Rattus norvegicus) (UniProt Q9ES58); conditions: cited from earlier work
[2] = molecular target: T1, biotinylated rat Cd200R monomeric bait (rat, UniProt Q9ES58 24-239, biotin on a specific lysine of the C-terminal BirA acceptor peptide (enzymatic monobiotinylation)); test: ELISA; AVEXIS: dilution series of pentameric beta-lactamase prey on a fixed quantity of monomeric mono-biotinylated bait on a streptavidin-coated 96-well plate; 1 h at room temperature, washes in PBS / 0.1% Tween-20; nitrocefin, absorbance at 485 nm; conditions: both partners purified
T1 construct: Cd200R (CD200 receptor 1), rat, ectodomain; Captured on streptavidin-coated plates by its biotin; also called Cd200R bait; source: HEK293E, transient transfection with BirA plasmid, secreted; purified; not shown: rat Cd4 domains 3+4, C-terminal, kept; BirA biotin acceptor peptide, C-terminal, kept
T1 sequence (looked up): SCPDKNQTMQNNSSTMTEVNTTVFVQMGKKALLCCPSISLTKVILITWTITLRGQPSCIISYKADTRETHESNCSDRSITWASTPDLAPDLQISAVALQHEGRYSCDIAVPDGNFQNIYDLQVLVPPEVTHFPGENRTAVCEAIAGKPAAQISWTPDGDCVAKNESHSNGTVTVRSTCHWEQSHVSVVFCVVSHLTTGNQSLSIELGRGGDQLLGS

[3] = molecular target: T2, biotinylated rat Cd200R monomeric bait (rat, UniProt Q9ES58 24-239, biotin on a specific lysine of the C-terminal BirA acceptor peptide (enzymatic monobiotinylation)); test: ELISA; printed as log IC50 = -9.6; direct binding of pentameric prey to immobilised bait
T2 chain: T1 sequence (looked up)

[4] = molecular target: T3, biotinylated Cd200R Gaussia luciferase pentamer (bait) (rat, UniProt Q9ES58 24-239, biotin on a specific lysine of the C-terminal BirA acceptor peptide (enzymatic biotinylation)); test: ELISA; AVEXIS: dilution series of biotinylated Gaussia luciferase pentamer immobilised as bait on a streptavidin-coated plate, probed with beta-lactamase-tagged pentameric prey; nitrocefin read-out; conditions: both partners purified
T3 construct: Cd200R (CD200 receptor 1), rat, ectodomain; also called Cd200R Gaussia luciferase-tagged pentamer; source: HEK293E, transient transfection with BirA plasmid, secreted; purified; not shown: rat Cd4 domains 3+4, C-terminal, kept; five concatenated Gaussia luciferase units (AAG54095 residues K18-D185), C-terminal, kept; BirA biotin acceptor peptide, C-terminal, kept
T3 sequence (looked up): T1 sequence (looked up)

[5] = molecular target: T1, biotinylated rat Cd200R monomeric bait; test: ELISA; AVEXIS: dilution series of pentameric nano-luciferase prey on a fixed quantity of monomeric mono-biotinylated bait on a streptavidin-coated 96-well plate; 1 h at room temperature; furimazine, luminescence; conditions: both partners purified
[6] = molecular target: T2, biotinylated rat Cd200R monomeric bait; test: ELISA; printed as log IC50 = -9.9; direct binding of pentameric prey to immobilised bait
[7] = molecular target: T1, biotinylated rat Cd200R monomeric bait; test: ELISA; AVEXIS: dilution series of pentameric Gaussia luciferase prey on a fixed quantity of monomeric mono-biotinylated bait on a streptavidin-coated 96-well plate; 1 h at room temperature; coelenterazine, luminescence; conditions: both partners purified
[8] = molecular target: T3, biotinylated Cd200R Gaussia luciferase …; test: ELISA; AVEXIS, single construct: dilution series of biotinylated Gaussia luciferase pentamer bait on a streptavidin-coated plate, inactivated with coelenterazine, probed with non-biotinylated Gaussia luciferase pentamer prey; coelenterazine, luminescence; conditions: both partners purified

Molecule: Cd200 (from UniProt P04218)
Kd [1]: 2500 nM

binding result [2]: binds
IC50 [3]: 0.25 nM
binding result [4]: binds
B1: rat Cd200 beta-lactamase pentameric prey (domain or fragment, UniProt P04218 31-232, looked up)
chain: QVEVVTQDERKLLHTTASLRCSLKTTQEPLIVTWQKKKAVGPENMVTYSKAHGVVIQPTYKDRINITELGLLNTSITFWNTTLDDEGCYMCLFNMFGSGKVSGTACLTLYVQPIVHLHYNYFEDHLNITCSATARPAPAISWKGTGSGIENSTESHSHSNGTTSVTSILRVKDPKTQVGKEVICQVLYLGNVIDYKQSLDKG
notes: Cd200 (OX-2 membrane glycoprotein), rat, extracellular region (ectodomain); Original AVEXIS prey format; Pentamer through COMP; also called Cd200 beta-lactamase tagged prey; beta-lactamase-tagged Cd200 pentamer; source: HEK293E, transient transfection, secreted; not shown: rat Cd4 domains 3+4, C-terminal, kept; beta-lactamase (WP_125075679 residues H19-W282), C-terminal, kept

binding result [5]: binds
IC50 [6]: 0.126 nM
B2: rat Cd200 nano-luciferase pentameric prey (domain or fragment, UniProt P04218 31-232, looked up)
chain: B1 chain
notes: Cd200 (OX-2 membrane glycoprotein), rat, extracellular region (ectodomain); also called NanoLuc prey; Nano luciferase prey; source: HEK293E, transient transfection, secreted; not shown: rat Cd4 domains 3+4, C-terminal, kept; five concatenated nano-luciferase units (AHH41346 residues V2-T171), C-terminal, kept

binding result [7]: binds
binding result [8]: binds
IC50 [6]: 0.126 nM
B3: rat Cd200 Gaussia luciferase pentameric prey (domain or fragment, UniProt P04218 31-232, looked up)
chain: B1 chain
notes: Cd200 (OX-2 membrane glycoprotein), rat, extracellular region (ectodomain); also called Cd200 Gaussia luciferase fusion pentamer; GLuc prey; source: HEK293E, transient transfection, secreted; not shown: rat Cd4 domains 3+4, C-terminal, kept; five concatenated Gaussia luciferase units (AAG54095 residues K18-D185), C-terminal, kept
